Measurements published in US20260098858A1 (NAVROGEN, published 2026).

B1: soluble human ICAM-1/CD54 (receptor)
chain: QTSVSPSKVILPRGGSVLVTCSTSCDQPKLLGIETPLPKKELLLPGNNRKVYELSNVQEDSQPMCYSNCPDGQSTAKTFLTVYWTPERVELAPLPSWQPVGKNLTLRCQVEGGAPRANLTVVLLRGEKELKREPAVGEPAEVTTTVLVRRDHHGANFSCRTELDLRPQGLELFENTSAPYQLQTFVLPATPPQLVSPRVLEVDTQGTVVCSLDGLFPVSEAQVHLALGDQRLNPTVTYGNDSFSAKASVSVTAEDEGTQRLTCAVILGNQSQETLQTVTIYSFPAPNVILTKPEVSEGTEVTVKCEAHPRAKVTLNGVPAQPLGPRAQLLLKATPEDNGRSFSCSATLEVAGQLIHKNQTRELRVLYGPRLDERDCPGNWTWPENSQQTPMCQAWGNPLPELKCLKDGTFPLPIGESVTVTRDLEGTYLCRARSTQGEVTRKVTVNVLSPRYE
notes: also called sICAM-1; SICAM-1

Key:
human serum albumin = target: T1, human serum albumin (human, UniProt P02768 25-609); test: ELISA: immobilized control protein, biotinylated sICAM-1 probe (FIG. 1B)
T1 construct: also called HSA
From the text: (§1) Experiments represent a minimum of triplicate wells. Statistical analysis was done using the Student's T-test.

[1] = target: B1; test: ELISA: immobilized monomeric CH2 domain, biotinylated sICAM-1 probe (FIG. 4B)
Method: as §1
First, fragment domain analysis was performed. […] Briefly, plates were coated with 100 μL of 2.5 μg/mL of full length IgG1 antibody or fragments for 1 hour at room temperature in 0.05 M carbonate buffer. Plates were washed in phosphate buffered saline (PBS) plus 0.1% tween-20 (PBS-T) and blocked with 200 uLs of PBS plus 1% BSA. […] Plates were then washed three times with PBS-T, and quantified using TMB colorimetric substrate (Pierce). Reactions were stopped using 0.1N H₂SO₄ and A450 quantitated using a Varioskan plate reader.

Binder | binding result (human serum albumin) | binding result [1]
B1 | no binding (tested: 5 µg/mL biotinylated sICAM-1) | 
secreted recombinant monomeric heavy chain CH2 domain (other, human, UniProt P01857 114-223, looked up, domain: CH2) APELLGGPSVFLFPPKPKDTLMISRTPEVTCVVVDVSHEDPEVKFNWYVDGVEVHNAKTKPREEQYNSTYRVVSVLTVLHQDWLNGKEYKCKVSNKALPAPIEKTISKAK |  | no binding (tested: 0.5 µg/mL biotinylated sICAM-1)
